Laboratory results from article PMC9482650, “Quantitative fragmentomics allow affinity mapping of interactomes” (Nature Communications, 2022).

Experiments:
Test in all cases: holdup assay
Set-up in all cases: key: below the threshold = too weak to quantify, mostly under pKd 3.1 to 4
Conditions in all cases: plain residues with an end cap or a label only (N-terminal biotin on a linker: ado-ado)
APBA2_2, Q99767 = biological target: T1, APBA2_2, Q99767
T1 sequence (Q99767 654-744, limits assumed, looked up): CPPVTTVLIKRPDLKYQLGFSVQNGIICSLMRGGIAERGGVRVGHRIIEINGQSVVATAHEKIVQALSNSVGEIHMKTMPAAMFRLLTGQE

DLG1_1, Q12959 = biological target: DLG1_1, Q12959
DLG4_3, P78352 = biological target: DLG4_3, P78352
Chain of DLG4_3, P78352 (P78352 306-403): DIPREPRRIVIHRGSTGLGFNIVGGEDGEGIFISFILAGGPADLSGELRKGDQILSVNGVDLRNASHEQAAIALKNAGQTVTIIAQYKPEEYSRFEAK

FRMPD2_3, Q68DX3 = biological target: FRMPD2_3, Q68DX3
Chain of FRMPD2_3, Q68DX3 (Q68DX3 1073-1166): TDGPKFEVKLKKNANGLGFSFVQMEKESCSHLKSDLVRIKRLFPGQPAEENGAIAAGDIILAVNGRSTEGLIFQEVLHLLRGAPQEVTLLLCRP

GORASP1, Q9BQQ3 = biological target: GORASP1, Q9BQQ3
Chain of GORASP1, Q9BQQ3 (Q9BQQ3 1-208): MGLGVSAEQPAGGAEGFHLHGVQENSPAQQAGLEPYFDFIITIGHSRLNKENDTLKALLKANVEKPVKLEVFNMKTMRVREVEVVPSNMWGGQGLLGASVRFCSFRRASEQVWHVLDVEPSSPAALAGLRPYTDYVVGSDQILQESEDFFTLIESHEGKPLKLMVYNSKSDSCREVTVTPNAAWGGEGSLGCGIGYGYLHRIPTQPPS

GRIP1_4, Q9Y3R0 = biological target: T2, GRIP1_4, Q9Y3R0
T2 sequence (Q9Y3R0 467-571, limits assumed, looked up): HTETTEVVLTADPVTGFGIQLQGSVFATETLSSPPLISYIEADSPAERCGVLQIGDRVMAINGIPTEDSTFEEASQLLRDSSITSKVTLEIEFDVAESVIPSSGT

GRIP2_6, Q9C0E4 = biological target: GRIP2_6, Q9C0E4
Chain of GRIP2_6, Q9C0E4 (Q9C0E4 648-740): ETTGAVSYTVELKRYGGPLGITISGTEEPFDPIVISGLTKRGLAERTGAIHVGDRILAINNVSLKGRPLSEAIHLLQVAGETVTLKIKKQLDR

HTRA2, O43464 = biological target: HTRA2, O43464
Chain of HTRA2, O43464 (O43464 355-458): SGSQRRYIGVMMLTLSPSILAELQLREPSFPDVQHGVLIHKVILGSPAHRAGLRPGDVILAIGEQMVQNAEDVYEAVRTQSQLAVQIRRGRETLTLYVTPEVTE

IL16_1, Q14005 = biological target: IL16_1, Q14005
Chain of IL16_1, Q14005 (Q14005 210-306): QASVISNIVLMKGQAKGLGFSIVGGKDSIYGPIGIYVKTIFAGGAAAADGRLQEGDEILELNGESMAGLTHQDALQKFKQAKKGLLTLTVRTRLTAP

LNX1_1, Q8TBB1 = biological target: LNX1_1, Q8TBB1
Chain of LNX1_1, Q8TBB1 (Q8TBB1 261-371): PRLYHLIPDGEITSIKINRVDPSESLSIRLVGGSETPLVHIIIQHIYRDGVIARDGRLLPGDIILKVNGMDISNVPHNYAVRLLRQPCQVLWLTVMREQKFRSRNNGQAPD

LNX1_2, Q8TBB1 = biological target: LNX1_2, Q8TBB1
Chain of LNX1_2, Q8TBB1 (Q8TBB1 371-470): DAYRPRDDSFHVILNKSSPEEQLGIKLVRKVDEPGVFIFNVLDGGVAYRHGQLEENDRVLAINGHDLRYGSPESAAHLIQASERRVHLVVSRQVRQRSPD

LRRC7, Q96NW7 = biological target: T3, LRRC7, Q96NW7
T3 sequence (Q96NW7 1440-1537, limits assumed, looked up): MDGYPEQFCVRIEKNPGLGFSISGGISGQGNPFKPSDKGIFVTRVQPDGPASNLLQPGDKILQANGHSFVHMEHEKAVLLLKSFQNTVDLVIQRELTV

MAGI1_2, Q96QZ7 = biological target: MAGI1_2, Q96QZ7
Chain of MAGI1_2, Q96QZ7 (Q96QZ7 456-580): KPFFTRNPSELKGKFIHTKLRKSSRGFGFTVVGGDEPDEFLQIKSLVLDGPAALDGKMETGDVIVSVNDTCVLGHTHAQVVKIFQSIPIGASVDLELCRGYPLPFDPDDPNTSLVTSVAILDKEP

MAGI2_4, Q86UL8 = biological target: MAGI2_4, Q86UL8
Chain of MAGI2_4, Q86UL8 (Q86UL8 772-865): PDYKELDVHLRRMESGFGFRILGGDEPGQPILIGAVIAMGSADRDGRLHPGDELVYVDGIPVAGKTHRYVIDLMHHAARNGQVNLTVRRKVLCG

MPDZ_5, O75970 = biological target: T4, MPDZ_5, O75970
T4 sequence (O75970 695-796, limits assumed, looked up): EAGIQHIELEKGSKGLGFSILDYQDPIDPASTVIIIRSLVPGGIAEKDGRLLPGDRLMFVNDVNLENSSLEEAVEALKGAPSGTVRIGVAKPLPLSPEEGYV

MPP2, Q14168 = biological target: T5, MPP2, Q14168
T5 sequence (Q14168 180-250, limits assumed, looked up): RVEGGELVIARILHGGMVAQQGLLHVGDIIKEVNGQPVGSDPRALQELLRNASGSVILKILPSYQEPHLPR

MPP6, Q9NZW5 = biological target: T6, MPP6, Q9NZW5
T6 sequence (Q9NZW5 125-219, limits assumed, looked up): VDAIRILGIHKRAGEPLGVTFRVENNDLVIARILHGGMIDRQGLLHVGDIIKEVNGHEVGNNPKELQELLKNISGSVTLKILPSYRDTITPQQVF

MPP7, Q5T2T1 = biological target: T7, MPP7, Q5T2T1
T7 sequence (Q5T2T1 134-230, limits assumed, looked up): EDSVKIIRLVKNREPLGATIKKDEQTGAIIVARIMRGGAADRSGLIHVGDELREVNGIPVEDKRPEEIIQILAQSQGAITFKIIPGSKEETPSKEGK

NHERF3_1, Q5T2W1 = biological target: T8, NHERF3_1, Q5T2W1
T8 sequence (Q5T2W1 4-100, limits assumed, looked up): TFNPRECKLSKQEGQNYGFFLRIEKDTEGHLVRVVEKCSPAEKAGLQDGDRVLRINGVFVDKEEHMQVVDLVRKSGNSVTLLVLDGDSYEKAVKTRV

PDZD2_2, O15018 = biological target: T9, PDZD2_2, O15018
T9 sequence (O15018 329-429, limits assumed, looked up): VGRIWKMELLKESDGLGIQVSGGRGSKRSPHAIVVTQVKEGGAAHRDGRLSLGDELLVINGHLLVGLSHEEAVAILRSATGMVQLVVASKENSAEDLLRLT

PDZD7_3, Q9H5P4 = biological target: T10, PDZD7_3, Q9H5P4
T10 sequence (Q9H5P4 857-944, limits assumed, looked up): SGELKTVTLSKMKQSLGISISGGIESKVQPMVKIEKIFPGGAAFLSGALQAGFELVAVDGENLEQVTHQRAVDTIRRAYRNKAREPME

RHPN1, Q8TCX5 = biological target: T11, RHPN1, Q8TCX5
T11 sequence (Q8TCX5 508-602, limits assumed, looked up): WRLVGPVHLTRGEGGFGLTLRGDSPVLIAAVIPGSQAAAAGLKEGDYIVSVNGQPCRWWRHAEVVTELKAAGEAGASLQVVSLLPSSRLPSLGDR

SCRIB_2, Q14160 = biological target: SCRIB_2, Q14160
Chain of SCRIB_2, Q14160 (Q14160 857-960): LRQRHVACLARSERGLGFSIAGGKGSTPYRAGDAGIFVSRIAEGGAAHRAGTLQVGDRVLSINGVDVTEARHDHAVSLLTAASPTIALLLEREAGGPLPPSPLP

SYNJ2BP, P57105 = biological target: T12, SYNJ2BP, P57105
T12 sequence (P57105 8-110, limits assumed, looked up): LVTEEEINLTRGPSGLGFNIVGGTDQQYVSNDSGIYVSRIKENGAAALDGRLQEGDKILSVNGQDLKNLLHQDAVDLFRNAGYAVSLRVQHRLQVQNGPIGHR

TJP3_3, O95049 = biological target: T13, TJP3_3, O95049
T13 sequence (O95049 375-456, limits assumed, looked up): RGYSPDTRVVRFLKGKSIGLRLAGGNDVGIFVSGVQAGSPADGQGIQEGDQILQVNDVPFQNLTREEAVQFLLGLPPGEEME

B1: FZD4, Q9ULV1 (peptide)
chain: KPGKGSETVV
APBA2_2, Q99767
  pKd: below the threshold
DLG1_1, Q12959
  pKd: 4.65
DLG4_3, P78352
  pKd: 3.79
FRMPD2_3, Q68DX3
  pKd: below the threshold
GORASP1, Q9BQQ3
  pKd: 3.78
GRIP1_4, Q9Y3R0
  pKd: below the threshold
GRIP2_6, Q9C0E4
  pKd: below the threshold
HTRA2, O43464
  pKd: below the threshold
IL16_1, Q14005
  pKd: 3.61
LNX1_1, Q8TBB1
  pKd: below the threshold
LNX1_2, Q8TBB1
  pKd: 3.56
LRRC7, Q96NW7
  pKd: below the threshold
MAGI1_2, Q96QZ7
  pKd: 4.47
MAGI2_4, Q86UL8
  pKd: 4.48
MPDZ_5, O75970
  pKd: below the threshold
MPP2, Q14168
  pKd: below the threshold
MPP6, Q9NZW5
  pKd: below the threshold
MPP7, Q5T2T1
  pKd: below the threshold
NHERF3_1, Q5T2W1
  pKd: below the threshold
PDZD2_2, O15018
  pKd: 3.76
PDZD7_3, Q9H5P4
  pKd: 4.67
RHPN1, Q8TCX5
  pKd: 3.89
SCRIB_2, Q14160
  pKd: 3.83
SYNJ2BP, P57105
  pKd: 4.3
TJP3_3, O95049
  pKd: below the threshold

B2: PLXNB1, O43157 (peptide)
chain: AAVENKVTDL
APBA2_2, Q99767
  pKd: below the threshold
DLG1_1, Q12959
  pKd: 3.7
DLG4_3, P78352
  pKd: below the threshold
FRMPD2_3, Q68DX3
  pKd: below the threshold
GORASP1, Q9BQQ3
  pKd: below the threshold
GRIP1_4, Q9Y3R0
  pKd: below the threshold
GRIP2_6, Q9C0E4
  pKd: below the threshold
HTRA2, O43464
  pKd: below the threshold
IL16_1, Q14005
  pKd: below the threshold
LNX1_1, Q8TBB1
  pKd: 4.19
LNX1_2, Q8TBB1
  pKd: below the threshold
LRRC7, Q96NW7
  pKd: 3.74
MAGI1_2, Q96QZ7
  pKd: below the threshold
MAGI2_4, Q86UL8
  pKd: below the threshold
MPDZ_5, O75970
  pKd: below the threshold
MPP2, Q14168
  pKd: below the threshold
MPP6, Q9NZW5
  pKd: below the threshold
MPP7, Q5T2T1
  pKd: below the threshold
NHERF3_1, Q5T2W1
  pKd: below the threshold
PDZD2_2, O15018
  pKd: 4.65
PDZD7_3, Q9H5P4
  pKd: 4.91
RHPN1, Q8TCX5
  pKd: 4.17
SCRIB_2, Q14160
  pKd: 3.52
SYNJ2BP, P57105
  pKd: below the threshold
TJP3_3, O95049
  pKd: below the threshold

B3: ADGRA3, Q8IWK6 (peptide)
chain: TGLWKHETTV
APBA2_2, Q99767
  pKd: below the threshold
DLG1_1, Q12959
  pKd: 5.12
DLG4_3, P78352
  pKd: 4.94
FRMPD2_3, Q68DX3
  pKd: below the threshold
GORASP1, Q9BQQ3
  pKd: below the threshold
GRIP1_4, Q9Y3R0
  pKd: below the threshold
GRIP2_6, Q9C0E4
  pKd: 3.55
HTRA2, O43464
  pKd: below the threshold
IL16_1, Q14005
  pKd: 4.09
LNX1_1, Q8TBB1
  pKd: 3.78
LNX1_2, Q8TBB1
  pKd: 3.8
LRRC7, Q96NW7
  pKd: 3.82
MAGI1_2, Q96QZ7
  pKd: 4.91
MAGI2_4, Q86UL8
  pKd: 4.77
MPDZ_5, O75970
  pKd: below the threshold
MPP2, Q14168
  pKd: below the threshold
MPP6, Q9NZW5
  pKd: below the threshold
MPP7, Q5T2T1
  pKd: below the threshold
NHERF3_1, Q5T2W1
  pKd: 3.63
PDZD2_2, O15018
  pKd: 4.2
PDZD7_3, Q9H5P4
  pKd: 4.99
RHPN1, Q8TCX5
  pKd: 4.44
SCRIB_2, Q14160
  pKd: 4.56
SYNJ2BP, P57105
  pKd: 5.19
TJP3_3, O95049
  pKd: below the threshold

B4: JUP, P14923 (peptide)
chain: PYPTADHMLA
APBA2_2, Q99767
  pKd: below the threshold
DLG1_1, Q12959
  pKd: below the threshold
DLG4_3, P78352
  pKd: below the threshold
FRMPD2_3, Q68DX3
  pKd: below the threshold
GORASP1, Q9BQQ3
  pKd: below the threshold
GRIP1_4, Q9Y3R0
  pKd: below the threshold
GRIP2_6, Q9C0E4
  pKd: below the threshold
HTRA2, O43464
  pKd: below the threshold
IL16_1, Q14005
  pKd: below the threshold
LNX1_1, Q8TBB1
  pKd: below the threshold
LNX1_2, Q8TBB1
  pKd: below the threshold
LRRC7, Q96NW7
  pKd: below the threshold
MAGI1_2, Q96QZ7
  pKd: below the threshold
MAGI2_4, Q86UL8
  pKd: below the threshold
MPDZ_5, O75970
  pKd: below the threshold
MPP2, Q14168
  pKd: below the threshold
MPP6, Q9NZW5
  pKd: below the threshold
MPP7, Q5T2T1
  pKd: below the threshold
NHERF3_1, Q5T2W1
  pKd: below the threshold
PDZD2_2, O15018
  pKd: below the threshold
PDZD7_3, Q9H5P4
  pKd: below the threshold
RHPN1, Q8TCX5
  pKd: below the threshold
SCRIB_2, Q14160
  pKd: below the threshold
SYNJ2BP, P57105
  pKd: below the threshold
TJP3_3, O95049
  pKd: below the threshold

B5: PRKACA, P17612 (peptide)
chain: EKCGKEFSEF
APBA2_2, Q99767
  pKd: below the threshold
DLG1_1, Q12959
  pKd: below the threshold
DLG4_3, P78352
  pKd: below the threshold
FRMPD2_3, Q68DX3
  pKd: below the threshold
GORASP1, Q9BQQ3
  pKd: below the threshold
GRIP1_4, Q9Y3R0
  pKd: below the threshold
GRIP2_6, Q9C0E4
  pKd: below the threshold
HTRA2, O43464
  pKd: below the threshold
IL16_1, Q14005
  pKd: below the threshold
LNX1_1, Q8TBB1
  pKd: below the threshold
LNX1_2, Q8TBB1
  pKd: below the threshold
LRRC7, Q96NW7
  pKd: below the threshold
MAGI1_2, Q96QZ7
  pKd: below the threshold
MAGI2_4, Q86UL8
  pKd: 3.62
MPDZ_5, O75970
  pKd: below the threshold
MPP2, Q14168
  pKd: below the threshold
MPP6, Q9NZW5
  pKd: below the threshold
MPP7, Q5T2T1
  pKd: below the threshold
NHERF3_1, Q5T2W1
  pKd: below the threshold
PDZD2_2, O15018
  pKd: 3.68
PDZD7_3, Q9H5P4
  pKd: below the threshold
RHPN1, Q8TCX5
  pKd: below the threshold
SCRIB_2, Q14160
  pKd: below the threshold
SYNJ2BP, P57105
  pKd: below the threshold
TJP3_3, O95049
  pKd: below the threshold

B6: SDC2, P34741 (peptide)
chain: QKAPTKEFYA
APBA2_2, Q99767
  pKd: below the threshold
DLG1_1, Q12959
  pKd: below the threshold
DLG4_3, P78352
  pKd: below the threshold
FRMPD2_3, Q68DX3
  pKd: 3.67
GORASP1, Q9BQQ3
  pKd: 3.51
GRIP1_4, Q9Y3R0
  pKd: below the threshold
GRIP2_6, Q9C0E4
  pKd: 4.1
HTRA2, O43464
  pKd: below the threshold
IL16_1, Q14005
  pKd: below the threshold
LNX1_1, Q8TBB1
  pKd: below the threshold
LNX1_2, Q8TBB1
  pKd: 3.5
LRRC7, Q96NW7
  pKd: below the threshold
MAGI1_2, Q96QZ7
  pKd: below the threshold
MAGI2_4, Q86UL8
  pKd: below the threshold
MPDZ_5, O75970
  pKd: 3.48
MPP2, Q14168
  pKd: below the threshold
MPP6, Q9NZW5
  pKd: below the threshold
MPP7, Q5T2T1
  pKd: below the threshold
NHERF3_1, Q5T2W1
  pKd: 3.86
PDZD2_2, O15018
  pKd: below the threshold
PDZD7_3, Q9H5P4
  pKd: below the threshold
RHPN1, Q8TCX5
  pKd: below the threshold
SCRIB_2, Q14160
  pKd: below the threshold
SYNJ2BP, P57105
  pKd: below the threshold
TJP3_3, O95049
  pKd: below the threshold
